Patent publication US8440430, “Modified dicer polypeptide and methods of use thereof” (The Regents of the University of California)

T1: TRBP, Q15633
T1 chain: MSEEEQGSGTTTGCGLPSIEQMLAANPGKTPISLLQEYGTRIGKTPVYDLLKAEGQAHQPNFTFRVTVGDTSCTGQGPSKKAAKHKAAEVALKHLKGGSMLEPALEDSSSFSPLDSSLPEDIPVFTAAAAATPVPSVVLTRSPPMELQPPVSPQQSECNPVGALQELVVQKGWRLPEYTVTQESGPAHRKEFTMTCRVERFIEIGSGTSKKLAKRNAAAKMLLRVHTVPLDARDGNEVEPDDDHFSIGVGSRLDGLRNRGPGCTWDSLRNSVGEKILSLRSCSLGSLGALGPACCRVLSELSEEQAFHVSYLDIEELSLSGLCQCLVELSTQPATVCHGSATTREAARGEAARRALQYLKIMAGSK

T2: ΔDEAD human Dicer (deletion of amino acids 1-604 spanning the entire DExD/H-box domain) (human, UniProt Q9UPY3 605-1922)
T2 construct: The DEAD-F primer adds an initiator Met; also called ΔDEAD hDcr; DExD/H-box deletion protein
T2 sequence: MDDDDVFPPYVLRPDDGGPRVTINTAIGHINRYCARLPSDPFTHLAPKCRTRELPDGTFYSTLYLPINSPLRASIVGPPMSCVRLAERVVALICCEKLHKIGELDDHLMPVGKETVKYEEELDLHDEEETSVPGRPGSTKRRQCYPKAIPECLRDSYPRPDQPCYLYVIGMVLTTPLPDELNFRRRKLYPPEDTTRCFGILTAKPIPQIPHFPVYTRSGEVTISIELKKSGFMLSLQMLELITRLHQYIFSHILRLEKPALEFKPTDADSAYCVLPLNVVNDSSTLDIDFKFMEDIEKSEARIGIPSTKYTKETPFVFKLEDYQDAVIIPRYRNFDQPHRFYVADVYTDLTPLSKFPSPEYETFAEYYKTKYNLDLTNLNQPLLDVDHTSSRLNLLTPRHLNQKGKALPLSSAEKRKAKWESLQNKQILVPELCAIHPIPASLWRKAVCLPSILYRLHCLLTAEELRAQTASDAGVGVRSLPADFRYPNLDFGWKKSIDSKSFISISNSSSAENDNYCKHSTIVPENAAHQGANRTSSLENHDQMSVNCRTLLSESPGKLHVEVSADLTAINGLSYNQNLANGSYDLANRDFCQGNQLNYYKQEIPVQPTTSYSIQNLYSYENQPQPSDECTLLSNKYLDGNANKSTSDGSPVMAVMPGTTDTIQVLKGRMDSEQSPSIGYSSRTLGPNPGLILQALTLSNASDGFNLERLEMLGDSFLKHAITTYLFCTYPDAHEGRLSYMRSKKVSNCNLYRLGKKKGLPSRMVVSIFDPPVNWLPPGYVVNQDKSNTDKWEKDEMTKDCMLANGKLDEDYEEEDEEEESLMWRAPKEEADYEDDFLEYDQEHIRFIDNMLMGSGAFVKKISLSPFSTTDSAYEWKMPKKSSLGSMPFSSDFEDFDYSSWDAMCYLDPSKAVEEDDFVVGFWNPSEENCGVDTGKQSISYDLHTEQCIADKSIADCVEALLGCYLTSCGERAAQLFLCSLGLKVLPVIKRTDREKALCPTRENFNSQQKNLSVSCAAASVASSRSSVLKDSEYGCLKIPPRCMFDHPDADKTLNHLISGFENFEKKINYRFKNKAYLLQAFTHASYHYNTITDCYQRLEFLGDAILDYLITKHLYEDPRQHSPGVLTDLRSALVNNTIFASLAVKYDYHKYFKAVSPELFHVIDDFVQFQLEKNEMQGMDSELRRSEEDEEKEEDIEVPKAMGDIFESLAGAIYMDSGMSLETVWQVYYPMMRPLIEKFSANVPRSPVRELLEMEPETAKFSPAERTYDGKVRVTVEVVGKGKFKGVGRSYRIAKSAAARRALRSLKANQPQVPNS


How the values were obtained:
TRBP, Q15633 = target: T1, TRBP, Q15633
[1] = target: T2, ΔDEAD human Dicer (deletion of amino …); test: size exclusion chromatography with SDS-PAGE of fractions after 60 min pre-incubation on ice
Description: FIGS. 6A and 6B. Interaction of human Dicer with TRBP mediated by DEAD domain A, TRBP interacts with hDcr through DEAD domain. Prior to size exclusion chromatography, 2.5 nmol of each human Dicer protein and 9.0 nmol of TRBP were pre-incubated on ice for 60 minutes. Left panel, a chromatogram (top) of wild-type human Dicer (flhDcr) with TRBP and SDS-PAGE gel analysis of fractions (bottom); Right panel, a chromatogram (top) of ΔDEAD human Dicer (ΔDEAD) with TRBP and SDS-PAGE gel analysis of fractions (bottom). B, Binding of TRBP to hDcr increased its dicing activity. A multiple-turnover assay for 37ab cleavage using 100 nM dsRNA and 5 nM hDcr or hDcr-TRBP.

binding result [1]	Binder	cleavage rate in a multiple-turnover assay for 37ab cleavage (100 nM dsRNA, 5 nM hDcr or hDcr-TRBP) (TRBP, Q15633)
–	full-length wild-type human Dicer (hDcr), accession no. NP-803187 (protein) MKSPALQPLSMAGLQLMTPASSPMGPFFGLPWQQEAIHDNIYTPRKYQVELLEAALDHNTIVCLNTGSGKTFIAVLLTKELSYQIRGDFSRNGKRTVFLVNSANQVAQQVSAVRTHSDLKVGEYSNLEVNASWTKERWNQEFTKHQVLIMTCYVALNVLKNGYLSLSDINLLVFDECHLAILDHPYREIMKLCENCPSCPRILGLTASILNGKCDPEELEEKIQKLEKILKSNAETATDLVVLDRYTSQPCEIVVDCGPFTDRSGLYERLLMELEEALNFINDCNISVHSKERDSTLISKQILSDCRAVLVVLGPWCADKVAGMMVRELQKYIKHEQEELHRKFLLFTDTFLRKIHALCEEHFSPASLDLKFVTPKVIKLLEILRKYKPYERQQFESVEWYNNRNQDNYVSWSDSEDDDEDEEIEEKEKPETNFPSPFTNILCGIIFVERRYTAVVLNRLIKEAGKQDPELAYISSNFITGHGIGKNQPRNKQMEAEFRKQEEVLRKFRAHETNLLIATSIVEEGVDIPKCNLVVRFDLPTEYRSYVQSKGRARAPISNYIMLADTDKIKSFEEDLKTYKAIEKILRNKCSKSVDTGETDIDPVMDDDDVFPPYVLRPDDGGPRVTINTAIGHINRYCARLPSDPFTHLAPKCRTRELPDGTFYSTLYLPINSPLRASIVGPPMSCVRLAERVVALICCEKLHKIGELDDHLMPVGKETVKYEEELDLHDEEETSVPGRPGSTKRRQCYPKAIPECLRDSYPRPDQPCYLYVIGMVLTTPLPDELNFRRRKLYPPEDTTRCFGILTAKPIPQIPHFPVYTRSGEVTISIELKKSGFMLSLQMLELITRLHQYIFSHILRLEKPALEFKPTDADSAYCVLPLNVVNDSSTLDIDFKFMEDIEKSEARIGIPSTKYTKETPFVFKLEDYQDAVIIPRYRNFDQPHRFYVADVYTDLTPLSKFPSPEYETFAEYYKTKYNLDLTNLNQPLLDVDHTSSRLNLLTPRHLNQKGKALPLSSAEKRKAKWESLQNKQILVPELCAIHPIPASLWRKAVCLPSILYRLHCLLTAEELRAQTASDAGVGVRSLPADFRYPNLDFGWKKSIDSKSFISISNSSSAENDNYCKHSTIVPENAAHQGANRTSSLENHDQMSVNCRTLLSESPGKLHVEVSADLTAINGLSYNQNLANGSYDLANRDFCQGNQLNYYKQEIPVQPTTSYSIQNLYSYENQPQPSDECTLLSNKYLDGNANKSTSDGSPVMAVMPGTTDTIQVLKGRMDSEQSPSIGYSSRTLGPNPGLILQALTLSNASDGFNLERLEMLGDSFLKHAITTYLFCTYPDAHEGRLSYMRSKKVSNCNLYRLGKKKGLPSRMVVSIFDPPVNWLPPGYVVNQDKSNTDKWEKDEMTKDCMLANGKLDEDYEEEDEEEESLMWRAPKEEADYEDDFLEYDQEHIRFIDNMLMGSGAFVKKISLSPFSTTDSAYEWKMPKKSSLGSMPFSSDFEDFDYSSWDAMCYLDPSKAVEEDDFVVGFWNPSEENCGVDTGKQSISYDLHTEQCIADKSIADCVEALLGCYLTSCGERAAQLFLCSLGLKVLPVIKRTDREKALCPTRENFNSQQKNLSVSCAAASVASSRSSVLKDSEYGCLKIPPRCMFDHPDADKTLNHLISGFENFEKKINYRFKNKAYLLQAFTHASYHYNTITDCYQRLEFLGDAILDYLITKHLYEDPRQHSPGVLTDLRSALVNNTIFASLAVKYDYHKYFKAVSPELFHVIDDFVQFQLEKNEMQGMDSELRRSEEDEEKEEDIEVPKAMGDIFESLAGAIYMDSGMSLETVWQVYYPMMRPLIEKFSANVPRSPVRELLEMEPETAKFSPAERTYDGKVRVTVEVVGKGKFKGVGRSYRIAKSAAARRALRSLKANQPQVPNS	increased the cleavage rate of the resulting protein complex
no binding	TRBP (other, human, UniProt Q15633 1-366, looked up, also called human partner protein TRBP) MSEEEQGSGTTTGCGLPSIEQMLAANPGKTPISLLQEYGTRIGKTPVYDLLKAEGQAHQPNFTFRVTVGDTSCTGQGPSKKAAKHKAAEVALKHLKGGSMLEPALEDSSSFSPLDSSLPEDIPVFTAAAAATPVPSVVLTRSPPMELQPPVSPQQSECNPVGALQELVVQKGWRLPEYTVTQESGPAHRKEFTMTCRVERFIEIGSGTSKKLAKRNAAAKMLLRVHTVPLDARDGNEVEPDDDHFSIGVGSRLDGLRNRGPGCTWDSLRNSVGEKILSLRSCSLGSLGALGPACCRVLSELSEEQAFHVSYLDIEELSLSGLCQCLVELSTQPATVCHGSATTREAARGEAARRALQYLKIMAGSK	–
